Results as given in US12127562B2, “Methods and compositions that increase pesticidal activity for FR901228” (PRO FARM GROUP, INC., priority 2020, dated 2024).
Converted amounts (≈) assume the structure as drawn. “Also recorded” adds a separate entry of the source. Like-named read-outs stand apart in the source and are kept apart here.

B1: HtpG: Chaperone protein HtpG from Burkholderia rinojensis A396 (SEQ ID No. 1), His-tagged, overexpressed in E. coli (protein)
chain: MTQQTMSFQAEVKQLLHLMIHSLYSNKEIFLRELVSNASDAADKLRFEALENGALYENDPNLRIRIGFDPAARTLTIDDNGIGMSRDEAIANLGTIARSGTKEFFSKLSGDQQKDAALIGQFGVGFYSGFIVADRITVETRRAGLPASEGVRWESGGEGDFSIDAIERAARGTTITLHLREGEDELLSAHRLKSIVRKYSDHVALPILMQQEAWDAEKGEMVAKDEDETVNQASALWTRAKSEITDEQYQQFYQHLAHDHQNPLAWTHNRVEGRSEYTQLLYVPSHAPFDLWNRDYRGGLKLYVKRVFIMDDAEQLLPQYLRFVKGVVDSADLPLNVSREILQESRDVKAIREGVTKRALSMLEELANAEDDAGKEQYRTFWSAFGQVLKEGVGEDQANRERVAKLVRFASTHGGTDAQDVSLADYVARMKPEQTRIYYVTADTWQAATHSPHLEVFRKKGVEVLLLTDRVDEWMLSYLQEFDGKPLASVARGDLDLGALDDAEKKAQEETGEAFKPLVEKMKEALGDKAKDVRVTFRLTDSPSCLVADDHDMSGYLQRMLKAAGQSGPAMQPILEVNPEHPLVKQLQADSPEFGDWCHLLFDQALLAEGGALEDPASFVKRTNTLLLSRAA
modifications: His tag; Burkholderia rinojensis A396
B2: DnaK: Chaperone protein DnaK from Burkholderia rinojensis A396 (SEQ ID No. 2), His-tagged, overexpressed in E. coli (protein)
chain: MGKIIGIDLGTTNSCVAVMEGNQVKVIENSEGARTTPSIIAYMDDNEVLVGAPAKRQSVTNPRNTLFAVKRLIGRRFEEKEVQKDIGLMPYAIIKADNGDAWVEAHGDKLAPPQVSAEVLRKMKKTAEDYLGEPVTEAVITVPAYFNDSQRQATKDAGRIAGLEVKRIINEPTAAALAFGLDKAEKGDRKIAVYDLGGGTFDVSIIEIADVDGEMQFEVLSTNGDTFLGGEDFDQRIIDYIIGEFKKEQGVDLSKDVLALQRLKEAAEKAKIELSSGQQTEINLPYITADASGPKHLNLKITRAKLEALVEELVERTIEPCRIAIKDAGVKVSDIDDVILVGGQTRMPKVLEKVKEFFGKDPRRDVNPDEAVAVGAAIQGQVLSGDRKDVLLLDVTPLSLGIETLGGVMTKMINKNTTIPTKHAQVYSTADDNQGAVTIKVFQGEREMAAGNKLLGEFNLEGIPPAPRGVPQIEVTFDIDANGILHVGAKDKATGKENKITIKANSGLSEAEIDQMIKDAEANAAEDHKLRELADSRNQGDALVHSTKKAVAEYGDKLDAGEKDKIEAALKELEDVLKNTSADKAAIDAKIEALSTASQKLGEKMYADMQAQQAGAAGAAGAAEGAAHGGAQQADDVVDADFKEVKKD
modifications: His tag; Burkholderia rinojensis A396

Test system: Beet army worm (Spodoptera exigua)
Test: Beet army worm diet overlay assay (insecticidal activity)
Assay type: in vivo
Details: for LC50: Spodoptera exigua, MW 540 concentration 50 μg/mL, protein concentration 0 mg/mL; for LC50 (μg/mL MW 540): Table 4, heated, MW 540 concentration 0 μg/mL, protein concentration 5 mg/mL; for insecticidal activity (in words): text summary, compared to MW 540 alone
Excerpt: The present inventors evaluated whether these two proteins can form conjugates with MW 540 and whether the conjugate has the same insecticidal activity as MW 540 alone. One skilled in the art knows that protein purification often uses polyhistidine-tags to assist with the concentration and removal of desired proteins from cellular material. The two protein sequences were cloned into an expression vector (pET26b(+)) and over-expressed in E. coli BL21 cells with a His tag added to the C-terminus of the sequence. In other words, His-tagged HtpG and DnaK from B. rinojensis A396 were overexpressed in E. coli and were purified by immobilized metal ion affinity chromatography.
After mixing MW 540 with HtpG and/or DnaK, heat was applied to the mixture to from disulfide bond conjugates and the end-product was evaluated and its insecticidal activity determined.
Table 1's numbers are expressed as protein concentrations as μg/mL. Subsequently, the insecticidal activity of the end products was evaluated using Beet army worm diet overlay assay known in the art.

Row | Molecule | LC50 (read-out: LC50 (μg/mL MW 540), Table 2) [µg/mL] | LC50 (read-out: LC50 (μg/mL MW 540), Table 3) [µg/mL] | LC50 (read-out: LC50 (μg/mL MW 540), Table 4, unheated) [µg/mL] | LC50 (μg/mL MW 540) | insecticidal activity (in words) | insecticidal activity (in words) (listed as HtPG)
1 | C/C=C1\NC(=O)[C@H]2CSSCC/C=C/[C@H](CC(=O)N[C@H](C(C)C)C(=O)N2)OC(=O)[C@H](C(C)C)NC1=O [MW 540, romidepsin, reference compound] | 0.27 (≈ 0.499 µM) | 0.35 (≈ 0.647 µM) | 0.43 (≈ 0.795 µM) | – | – | –
2 | B1 | – | – | – | No Activity | did not show insecticidal activity | does not exhibit insecticidal activity
3 | B2 | – | – | – | No Activity | does not exhibit insecticidal activity; also recorded: did not show insecticidal activity | –
